Measured values taken from patent US12797409, “Heparan sulfate mimetics to improve glucose clearance” (THE REGENTS OF THE UNIVERSITY OF CALIFORNIA).

T1: Alpl (alkaline phosphatase) (Mus musculus, UniProt P09242 P09242:18-501)
T1 sequence: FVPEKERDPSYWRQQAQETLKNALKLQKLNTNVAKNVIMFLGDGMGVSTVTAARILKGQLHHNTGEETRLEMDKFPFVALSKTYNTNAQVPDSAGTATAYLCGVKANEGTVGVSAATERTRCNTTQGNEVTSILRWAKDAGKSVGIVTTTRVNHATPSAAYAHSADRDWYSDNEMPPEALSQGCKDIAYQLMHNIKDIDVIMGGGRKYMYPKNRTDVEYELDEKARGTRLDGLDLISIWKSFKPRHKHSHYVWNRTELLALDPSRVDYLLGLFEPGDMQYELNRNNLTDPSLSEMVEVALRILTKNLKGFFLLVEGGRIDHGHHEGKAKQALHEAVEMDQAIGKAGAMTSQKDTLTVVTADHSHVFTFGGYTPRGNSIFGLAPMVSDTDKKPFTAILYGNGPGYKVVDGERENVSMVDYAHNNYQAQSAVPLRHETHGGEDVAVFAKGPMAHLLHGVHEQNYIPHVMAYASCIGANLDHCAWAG


Experiments:
[1] = target: T1, Alpl (alkaline phosphatase); test: flow; biotinylated aptamer alone on Ext1-/- mouse ES cells; cell-surface binding; settings: tags: endogenous on Ext1-/- mouse embryonic stem cells; chain copies: 2; G4
[2] = target: T1, Alpl (alkaline phosphatase); test: flow; Ext1-/- mouse ES cells, 40 min in suspension, 0-200 nM; binding significantly reduced after 6 days of neural differentiation; settings: tags: endogenous on Ext1-/- mouse embryonic stem cells; chain copies: 2; label: AF488 (on streptavidin); G4

Row | Binder | EC50 [1] | EC50 [2]
1 | AGGTCAGATGAGGAGGGGGACTTAGGACTGGGTTTATGACCTATGCGTG (ssDNA, 5'-biotin) [Aptamer 19S] | ~107 nM | –
2 | AGGTCAGATGAGGAGGGGGACTTAGGACTGGGTTTATGACCTATGCGTG (ssDNA, 5'-biotin, bound to streptavidin carrying biotinylated heparin (1:1:1)) [Hep-SA-19S (heparin-streptavidin-aptamer 19S chimera)] | – | 70 nM
